{
  "source": "the DeepSol protein solubility set",
  "data": [
    {"assay": "soluble on expression in E. coli; label from the status in PepcDB or PDB records", "values": [
      {"sequence": "MDTTYGPPAPALSGLTLGIREYSLFQAVLLVIDRLRDAHPHLSEDDLYDQLEFQANPSLGFPSSDVSRVEFFHEHGQMRARMQFNLIGLVGSGSPLPAFYGEQALGDSEDGNPTRNFLDLFHHRLQRLMLPIWKKYRYRASFESGALDPFSAQLFALIGLGGEEIRRAQELNWKRLLPYLGLLSLRAHSAALIEAVLRYYFKHAELTIEQCIERRVEILDEQRNRLGSANSMLGEDLVLGDHVRDRSGKFRIHIRELDWQRFHEFLPIGFGYQPLCALVRFTLRDPLDYDIRLVLRQEEIRELRIGEQNACRLGWTSWLGREKADGVVTLGSKIH", "soluble on expression in E. coli": "not soluble"},
      {"sequence": "MGSDKIHHHHHHMEKKVLIVGISQKQKDFDYSMEELANLAAANNMEVVGEIRQNIDRENRATYVGKGKVDEIKGLAEMQDARLIIFNDELSPSQIRNLEEALELDVMDRTGLILAIFANRAKTKEAQLQVQIAKLQYELPRIFGQGEDMDQQSGKGGLSNRGSGEKKIETDRRTIKYQIRHLQKELDMLVDDREVRRRKRKKNEIPVVSLVGYTNAGKSTTMNGLVRAYSETAEKQVFEKDMLFATLETSVREIVLPDNKQFLLTDTVGFVSKLPHQLVKAFRSTLEEARDADLLIHVVDYSDPHYKTMMKTTEETLKAVGVEDVPVIYAYNKADLIEGEIYPKQTENTIVFSAREKESLEFLTEVIRKELFASYEKATFLIPFEAGNVVAYLNDHADVLATEYLENGTQIVAEVSPADLQKLAEYQVAE", "soluble on expression in E. coli": "not soluble"},
      {"sequence": "MGSDKIHHHHHHMKRARAATNLPETRQPRSAHFAQAGQRWSDDVDASTTGVSKHDMCFAVASRESVRPYVLPRNKNDMADAEAICEAVTRPNMRFVAVKTAAQQSVLMLHRCRALLVRQRTMLANAIRAHLAEFGIVMPQGIRTLLTALIAPKDEVNDLPHLVRVALAPMAANLIELGQRIKGLEIEIAREHRGNETSRRLETIPGFGVMTSTAMAATVADPTAFKSGREFAAWLGLTPRESSSGGKQRLGGITKMGDGYLRTLLVVGATAVIRFAREEGSAKTAWIRKLMEKKPAKVVAVALANKMARIAWPLMTRGEVYRVIPA", "soluble on expression in E. coli": "not soluble"},
      {"sequence": "PQTLYQKLVETHTVARLDSQNVLLYADLHIMNEYTSPQAFAGLAEAGRTVLQPGQNVSVVDHIIPTHPVAIRIIEEPNSALQASNLKKNCERHGIPLFDANNRFQGIEHVIAPELGMIRPGMVVLCGDSHTTTYGALGALGFGIGTSEVEHVLATQTLVYRLAPT", "soluble on expression in E. coli": "not soluble"},
      {"sequence": "MAEVHVRELKGWEEMEEVVALQREVWGRAESDLVPRGLLVAVQDEGGLVAGAFAEGRMVGFVFGFPTKDPALHHSHMLGVLEAYRGTGAALLLKRFQRDWCLARGVRRVVWTFDPMRGVNANFNLRKLGATAKTYLPDHYGPMSGINAGAPSDRLLAEWDLLSERVYARLYAPPPEPEVAGLPQANRVEGEVPLEARLDLEAERLLFQIPEDWGRILREDPALALKWREHSRLVLPHYFARGYRLVDLVRHPNRYVLAKD", "soluble on expression in E. coli": "soluble"},
      {"sequence": "MTRSEKTRHFGNQNYEKLRKICIKKKQPFVDTLFPPTNQSLFLEQRQSSDIVWKRPGELHPDPHLFVEGASPNDVTQGILGNCWFVSACSALTHNFKLLAQVIPDADDQEWSTKHAYAGIFRFRFWRFGKWVEVVIDDLLPTRDGKLLFARSKTPNEFWSALLEKAFAKLYGCYENLVGGHLSDALQDVSGGVAETLHVRKFLKDDPNDTELKLFNDLKTAFDKGALVVAAIAARTKEEIEESLDCGLVKGHAYAVSAVCTIDVTNPNERSFTSFIMGSKRKQNLIRLQNPWGEKEWNGAWSDDSPEWQNVSASQLSTMGVQPANSDSDDGDFWMPWESFVHYFTDISLCQLFNTSVFSFSRSYDEQIVFSEWTTNGKKSGAPDDRAGGCHNFKATFCNNPQYIFDIPSPNCSVMFALIQNDPSEGLKKREPFVTIGMHVMKVENNRQYRVHTAMHPIAISDYASGRSVYLHLQSLPRGRYLLIPTTFAPKEQTLFMLRVYSDEHIHFSPLTKHAPKLGLLKCKSAQSVTRLTIHGVDFNSASTGTHNVYAILKDSRKSFRTKTLSGVKSIQWDEQFLFHKSKNRQQYKIEVWEDRKMARDHLLAQSVIIALIDNENRDTTLQLTDPRGTVIGTVSVTVSAFDDPMYL", "soluble on expression in E. coli": "not soluble"},
      {"sequence": "MTTVMKFGGTSVGSGERIRHVAKIVTKRKKEDDDVVVVVSAMSEVTNALVEISQQALDVRDIAKVGDFIKFIREKHYKAIEEAIKSEEIKEEVKKIIDSRIEELEKVLIGVAYLGELTPKSRDYILSFGERLSSPILSGAIRDLGEKSIALEGGEAGIITDNNFGSARVKRLEVKERLLPLLKEGIIPVVTGFIGTTEEGYITTLGRGGSDYSAALIGYGLDADIIEIWTDVSGVYTTDPRLVPTARRIPKLSYIEAMELAYFGAKVLHPRTIEPAMEKGIPILVKNTFEPESEGTLITNDMEMSDSIVKAISTIKNVALINIFGAGMVGVSGTAARIFKALGEEEVNVILISQGSSETNISLVVSEEDVDKALKALKREFGDFGKKSFLNNNLIRDVSVDKDVCVISVVGAGMRGAKGIAGKIFTAVSESGANIKMIAQGSSEVNISFVIDEKDLLNCVRKLHEKFIEKTNS", "soluble on expression in E. coli": "soluble"},
      {"sequence": "MSLRYSKLTMLIPCALLLSACTTVTPAYKDNGTRSGPCVEGGPDNVAQQFYDYRILHRSNDITALRPYLSDKLATLLSDASRDNNHRELLTNDPFSSRTTLPDSAHVASASTIPNRDARNIPLRVDLKQGDQGWQDEVLMIQEGQCWVIDDVRYLGGSVHATAGTLRQSIENREGHHHHHH", "soluble on expression in E. coli": "soluble"},
      {"sequence": "MGSDKIHHHHHHMVDVLVIGGGNAALCAALTAREAGASVLLLEAAPREWRGGNSQHTRNLRCMHDAPQDVLVESYPEEEFWQDLWRVTDGNTNEALARLVIRTSSQCRDWMRKHGVNFQPPLSGALHVARTNAFFMGGGKALVNAYYRSAERLGVQVRYNTPVHALELHDGEFVAALAGSERITAKACVLAAGGFESNREWLREAWGENARGEWPADNFLIRGTRFNQGVLLKFMMDAGADIIGDPSQSHCVAIDARAPLYDGGICTRVDCVSLGIVVNRDAERFYDEGEDFWPKRYAIWGRLVAQQPGQIGYSIIDSKAIGHFMPPVFPGAQANTLAELACQLGLDAEKFTHTVTQYNQACQPGHFDHTLLDDCATKNLTPAKTHWARPLDAPPYYGYALRPGITFTYLGLKVNERAAVHFAGHPSRNLFVAGEMMAGNVLGKGYTAGVGMSIGTTFGRIAGIEAARAAHKEAQHETA", "soluble on expression in E. coli": "not soluble"},
      {"sequence": "MGSDKIHHHHHHMKNLFLFCRAGYEKECAAEIQQRAAEMNVGGFVKTTNNDAYVIYQCFEDDGADTLAKMLPLNSLIFARQMFAASELHSDLPEQDRVGPLVASLLEADVTKCGELRVETPDTNEAKELSAFCRKFTVPLRQGLKKVGVLLDKENGRRPIIHVCFVGPGKAYVGYSLSNNSSPHFMGIPRLRMAADAPSRSSLKLDEAFGAFLTKEEQEMRCRSGLKAVDLGACPGGWTYQLVRRGMMVAAVDNGPMDEKLMETGQVKHYRADGFRFEPPRKNIYWLVCDMVEKPSRVAELMEAWAINGWFKEAIFNLKLPMKSRYKEVRVILDTMGEIFKENEIDYRLQCKHLYHDRDEVTVHLWIFPEKGVSYAEMG", "soluble on expression in E. coli": "not soluble"},
      {"sequence": "MARIIVVTSGKGGVGKTTSSAAIATGLAQKGKKTVVIDFDIGLRNLDLIMGCERRVVYDFVNVIQGDATLNQALIKDKRTDNLYILPASQTRDKDALTKEGVEKVLNDLGEMNFEFVVCDSPAGIESGALMALYFADEAVITTNPEVSSVRDSDRILGILSSKSRRAENSQEPIKEHLLLTRYNPGRVNRGDMLSMEDVLDILRIPLVGVIPEDQSVLRASNQGEPVILDKESDAGKAYEDTVDRLLGEERPFRFVEEEKKGFLKRLFGG", "soluble on expression in E. coli": "not soluble"},
      {"sequence": "DGDRLRQFLENNKKVLRFWCVWDERTTMYGDRRPYVLHYYLEDDSVEVLEINENNSGRDPFPVFLKRGPLPKVAVKTNTTLNPKFRKDQCYNAGDFRLGLFINVLGRDFYLHDADTFTKQWYKDNLGYTDEE", "soluble on expression in E. coli": "not soluble"},
      {"sequence": "MSAPLIDKYRKMATFDWKKLKAAVEGEEHVRLKSEVVAKMKSEPVFHRDYRVLSREEQREVVHQRWKKIVEWGLFKDPYSDLENFHALTETLEAYDQGTSARLFLHGNVFGAAVKSMGTDRHKDLIQKTENNEIVGAFCLTEVGHGSNTAEIQTTATFDNGELVFNTPSVSAIKCWAGNLAHSATHVVVYAQLHVEGKNEGFHGFVIQVRCPRTFQTLPGITIGDMGSKPGCWQGVENGWMEFKNHRAPLSALLNKGCDITPDGKYVTSFKSASEKQSVSLGTLSVGRLGIIAKGMMACTFASTIAIRYSVARRQFGPVKGAENEIPVLEYPLQQYRLFPYLSAAICIRIFQKKFVGHFTEYMMRVIMGEKSDELSEFSKEVHALSSGAKPVATWLGVESLGEARKACGGHGYLQMSRLNTLRDDNDPSQTFEGENFMILQQTSNILLGKAQSIGSIETPMSTMSFLNQKPSKFSSWSSNPVNDVLSAYRYLTYHLLQTTSAEAYRLKASGKNSFEVRNEIQIHRAVNLSVAYTEHTMIHWVQQFLKEIEDQSVKPVLQKVLNLFSLFLLERHLATLYITGYASGGKFGEDLREKLRLAVAELKPEAIALVDSIAPDDFILHSALGASDGKAYEHIMEEFRKYTNEQPRWVCDLAQFLQKRSQGSKL", "soluble on expression in E. coli": "not soluble"},
      {"sequence": "MGVMNTGETLDEKAIVASAEKALSDIAAIRTEVSKVIFGQEKVVQNTLLAILSGGHALLVGVPGLAKTKLVTTLGTVLGLDANRIQFTPDLMPSDILGSEVMDQDENGRRSFRFIKGPIFGQLLMADEINRASPRTQSALLQAMQEYHITMAGQTYELPKPFHVLATQNPLEQEGTYPLPEAQLDRFLLQVDVDYPELAAERQILLDTTGTASGEARPVIGAERLMEIQALIRQMPVSDKVVDAILSLVRSARPGHGNKLTDKNVVWGPGPRAGQSLMLTARARALYEGRLAPSLDDVHALAEPVLEHRMALTFAARAEGMSVRDVIAALVEQAKN", "soluble on expression in E. coli": "not soluble"},
      {"sequence": "EDFFNAKVQEQIERYQRYHNTAYNLEPDIKFSPGGLRDLHLLYWVALRHSGALTLEAILQSGFIYPQEYQQLQESRAFLFKVRFALHLILKRYDNRLLFDRQIKVSELLGFRGEGNPAVEKMMKCFFQALHRISLISNLLIQHYRENVLSSNQDTVIDQLDDDFQLINQSLCLRNSFVFQEKPARILDLFFYLTQYEHVNIHSDTLRQL", "soluble on expression in E. coli": "not soluble"},
      {"sequence": "QGLVPQGQTQVLQGGNKVPVVNIADPNSGGVSHNKFQQFNVANPGVVFNNGLTDGVSRIGGALTKNPNLTRQASAILAEVTDTSPSRLAGTLEVYGKGADLIIANPNGISVNGLSTLNASNLTLTTGRPSVNGGRIGLDVQQGTVTIERGGVNATGLGYFDVVARLVKLQGAVSSKQGKPLADIAVVAGANRYDHATRRATPIAAGARGAAAGAYAIDGTAAGAMYGKHITLVSSDSGLGVRQLGSLSSPSAITVSSQGEIALGDATVQRGPLSLKGAGVVSAGKLASGGGAVNVAGGGAV", "soluble on expression in E. coli": "soluble"},
      {"sequence": "MGDTGKLGRIIRHDAFQVWEGDEPPKLRYVFLFRNKIMFTEQDASTSPPSYTHYSSIRLDKYNIRQHTTDEDTIVLQPQEPGLPSFRIKPKDFETSEYVRKAWLRDIAEEQEKYAAERD", "soluble on expression in E. coli": "soluble"},
      {"sequence": "MAHHHHHHMKLYSLAIVKPYPSGVEKQPVICSQAIDVSSFGFFQRNSAREFIVFLTRTVSNRVAKGVKTQITENGNVVFAHATFDGLVALAISDVEYNSRVAFTLLGDLVQQFQTTFRGKYDLVDGKEDNFLSWPHLTETLEKYQKPEEQDKILKIKRDIEDTKVIMYNAIDQIIERGQKIDDLVAQSEDLGMASKTFYKQAKKTNSGCCTVM", "soluble on expression in E. coli": "soluble"},
      {"sequence": "MSLNIAIFINTPAQFHFYRNIAKELKNRGHFVELLFRDYGENLEIAKELGLNPTVYAKPSDSKYGKILSLPSDVLRATKLLKKFKPDIITGFGVYDAFSSFLVNVPCIVFNDSEPFINSSYAVQFKLFMPFTNVLITPEAFQPNFGTKHINIPSYKEFSYLHPNYYTPKEDIFELIGIEKNEEYILLRFNAFDAVHDAGITGFTKENKIKLVKELEKHCKVFISSETQVPKEIEKNILKTPKSRIHDVLYYAKILITDTQTMTTEAALLGTPALRYNKFVGGKDMSNFIELEKNYGLIFNYQNSEKIFERAFELLNTENLKEIWKKKRELLLKNKIDSTSFMVWFFENYPESFEKMKTDVTIYENFNDNLAKIKGEGHHHHHH", "soluble on expression in E. coli": "soluble"}
    ]}
  ]
}
